Results from patent US20250304640A1 (ORIKINE BIO SL, published 2025).

T1: IL-10 receptor (IL-10R: IL10RA and IL10RB) on HEK-Blue IL-10 reporter cells (UniProt Q13651 22-578; Q08334 20-325, limits assumed)
T1 sequence (looked up) 1: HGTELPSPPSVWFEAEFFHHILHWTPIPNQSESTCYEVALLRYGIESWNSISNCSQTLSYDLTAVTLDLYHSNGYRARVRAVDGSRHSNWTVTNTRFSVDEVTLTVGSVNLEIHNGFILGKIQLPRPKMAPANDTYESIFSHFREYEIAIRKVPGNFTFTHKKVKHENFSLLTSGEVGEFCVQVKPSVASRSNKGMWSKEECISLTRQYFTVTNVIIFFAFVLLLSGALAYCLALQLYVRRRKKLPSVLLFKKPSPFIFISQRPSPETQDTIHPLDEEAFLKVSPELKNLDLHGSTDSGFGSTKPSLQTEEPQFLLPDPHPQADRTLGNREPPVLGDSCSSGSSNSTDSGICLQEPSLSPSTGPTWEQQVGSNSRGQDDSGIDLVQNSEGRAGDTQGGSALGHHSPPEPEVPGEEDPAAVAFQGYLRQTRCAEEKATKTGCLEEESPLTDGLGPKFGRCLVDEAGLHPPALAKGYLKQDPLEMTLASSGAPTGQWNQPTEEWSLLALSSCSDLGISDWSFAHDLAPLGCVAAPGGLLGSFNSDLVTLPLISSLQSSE
T1 sequence (looked up) 2: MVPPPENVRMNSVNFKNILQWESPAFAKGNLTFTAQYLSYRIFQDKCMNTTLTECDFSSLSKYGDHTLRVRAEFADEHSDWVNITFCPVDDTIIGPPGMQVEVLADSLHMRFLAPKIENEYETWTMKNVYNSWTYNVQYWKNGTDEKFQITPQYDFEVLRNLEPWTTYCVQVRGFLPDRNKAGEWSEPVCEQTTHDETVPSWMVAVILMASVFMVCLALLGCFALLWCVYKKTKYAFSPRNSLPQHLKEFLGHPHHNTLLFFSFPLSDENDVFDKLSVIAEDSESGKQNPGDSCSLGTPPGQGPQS

T2: IL10RA (UniProt Q13651 22-578, limits assumed)
T2 sequence (looked up): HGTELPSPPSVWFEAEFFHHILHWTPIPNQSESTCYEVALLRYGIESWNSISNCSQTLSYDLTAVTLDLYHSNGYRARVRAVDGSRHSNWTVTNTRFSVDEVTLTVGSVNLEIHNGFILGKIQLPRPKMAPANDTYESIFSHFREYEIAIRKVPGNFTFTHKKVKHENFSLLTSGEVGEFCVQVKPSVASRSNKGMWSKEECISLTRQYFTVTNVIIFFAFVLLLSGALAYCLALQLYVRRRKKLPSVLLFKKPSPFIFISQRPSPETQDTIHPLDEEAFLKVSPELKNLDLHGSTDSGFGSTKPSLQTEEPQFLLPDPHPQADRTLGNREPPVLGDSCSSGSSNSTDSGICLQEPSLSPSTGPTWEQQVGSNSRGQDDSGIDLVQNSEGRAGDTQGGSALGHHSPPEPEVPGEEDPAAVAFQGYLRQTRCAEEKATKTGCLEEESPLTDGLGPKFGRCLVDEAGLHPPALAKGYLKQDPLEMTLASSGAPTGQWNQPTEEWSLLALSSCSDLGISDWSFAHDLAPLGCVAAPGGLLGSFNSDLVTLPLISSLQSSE


What was measured:
Test in all cases: cell-based or functional assay
[1] = molecular target: CSF1 receptor (CSF1R) (UniProt P07333 20-972, limits assumed)
Sequence of CSF1 receptor (CSF1R) (P07333 20-972 limits assumed): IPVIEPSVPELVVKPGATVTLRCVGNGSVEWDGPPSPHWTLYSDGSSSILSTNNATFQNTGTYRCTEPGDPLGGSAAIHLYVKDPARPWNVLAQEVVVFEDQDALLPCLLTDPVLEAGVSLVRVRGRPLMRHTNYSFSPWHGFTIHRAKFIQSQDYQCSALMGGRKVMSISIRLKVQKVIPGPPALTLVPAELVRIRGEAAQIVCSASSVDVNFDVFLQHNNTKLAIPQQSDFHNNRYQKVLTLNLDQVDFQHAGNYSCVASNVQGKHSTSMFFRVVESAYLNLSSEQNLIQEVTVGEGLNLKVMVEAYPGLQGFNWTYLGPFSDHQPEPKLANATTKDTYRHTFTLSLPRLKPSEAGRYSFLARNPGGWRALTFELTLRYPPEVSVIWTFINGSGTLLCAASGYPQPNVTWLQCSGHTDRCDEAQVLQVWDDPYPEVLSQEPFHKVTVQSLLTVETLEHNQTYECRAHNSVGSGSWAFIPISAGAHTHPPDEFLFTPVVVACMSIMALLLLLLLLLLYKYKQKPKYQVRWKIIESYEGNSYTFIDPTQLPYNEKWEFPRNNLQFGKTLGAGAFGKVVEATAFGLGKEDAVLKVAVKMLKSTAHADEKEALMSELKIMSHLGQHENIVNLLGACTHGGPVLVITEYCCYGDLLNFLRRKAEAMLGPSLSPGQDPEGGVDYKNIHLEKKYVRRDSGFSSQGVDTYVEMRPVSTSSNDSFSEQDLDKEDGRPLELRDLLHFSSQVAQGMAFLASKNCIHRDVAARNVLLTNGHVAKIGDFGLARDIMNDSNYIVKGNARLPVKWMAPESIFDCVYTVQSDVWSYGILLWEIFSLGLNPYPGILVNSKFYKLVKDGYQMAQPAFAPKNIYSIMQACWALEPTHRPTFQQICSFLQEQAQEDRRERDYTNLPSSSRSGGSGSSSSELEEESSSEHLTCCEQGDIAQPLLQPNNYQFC

[2] = molecular target: T1, IL-10 receptor (IL-10R: IL10RA and …)
[3] = molecular target: T1, IL-10 receptor (IL-10R: IL10RA and …); remark: listed apart in the source
[4] = molecular target: T1, IL-10 receptor (IL-10R: IL10RA and …); remark: listed apart in the source
[5] = molecular target: T2, IL10RA

Binder | EC-50 for IL10 activity, HEK-Blue IL-10 reporter cells [2] | EC-50, HEK-Blue IL-10 reporter cells [3] | other results
CSF1-15AA-Foldikine10-HiBit (ligand) EEVSEYCSHMIGSGHLQSLQRLIDSQMETSCQITFEFVDQEQLKDPVCYLKKAFLLVQDIMEDTMRFRDNTPNAIAIVQLQELSLRLKSCFTKDYEEHDKACVRTFYETPLQLLEKVKNVFNETKNLLDKDWNIFSKNCNNSFAECSSQDGGSGGSGGSGGSGGGMTQSENSCTHFPGNLPNMLRDLRDAFSRVKTFFQMKDQLDNLLLKESLLEDFKGYLGCQALSEMIQFYLEEVMPQAENQEPDIKAHVNSLGENLKTLRLRLRRCHRFLPCENKSKAVEQVKNAFNKLQEKGIYKAMSEFDIFINYIEAYMTMNNGGLDYLPNMLRDLRDAFSRVKTFFQMKDQLDNLLLKESLLEDFKGYLGCQALSEMIQFYLEEVMPQAENQDPDIKAHVNSLGENLKTLRLRLRRNHRFLPCENKSKAVEQVKNAFNKLQEKGIYKAMSEFDIFINYIEAYMTMKIRNGGVSGWRLFKKIS | 2.6e-10 | – | EC-50 for CSF1 activity, HEK293 CSF1R/SRE reporter [1]: 1.19e-09
ORK10-005 (ligand) MTQSENSCTHFPGNLPNMLRDLRDAFSRVKTFFQMKDQLDNLLLKESLLEDFKGYLGCQALSEMIQFYLEEVMPQAENQDPDIKAHVNSLGENLKTLRLRLRRCHRFLPCENKSKAVEQVKNAFNKLQEKGIYKAMSEFDIFINYIEAKDKDIRDGDELANMLRDLRDAFSRVKTFFQMKDQLDNLLLKESLLEDFKGYLGCQALSEMIQFYLEEVMPQAENQDPDIKAHVNSLGENLKTLRLRLRRCHRFLPCENKSKAVEQVKNAFNKLQEKGIYKAMSEFDIFINYIEAYMTM | – | 6.25e-10 | –
CSF1-25AA-IL10-HiBit (ligand) EEVSEYCSHMIGSGHLQSLQRLIDSQMETSCQITFEFVDQEQLKDPVCYLKKAFLLVQDIMEDTMRFRDNTPNAIAIVQLQELSLRLKSCFTKDYEEHDKACVRTFYETPLQLLEKVKNVFNETKNLLDKDWNIFSKNCNNSFAECSSQDGGGSGGSGGSGGSGGSGGSGGSGGGRASPGQGTQSENSCTHFPGNLPNMLRDLRDAFSRVKTFFQMKDQLDNLLLKESLLEDFKGYLGCQALSEMIQFYLEEVMPQAENQDPDIKAHVNSLGENLKTLRLRLRRCHRFLPCENKSKAVEQVKNAFNKLQEKGIYKAMSEFDIFINYIEAYMTMKIRNGGVSGWRLFKKIS | 4.1e-10 | – | –
ORK10-003 (ligand) MTQSENSCTHFPGNLPNMLRDLRDAFSRVKTFFQMKDQLDNLLLKESLLEDFKGYLGCQALSEMIQFYLEEVMPQAENQDPDIKAHVNSLGENLKTLRLRLRRCHRFLPCENKSKAVEQVKNAFNKLQEKGIYKAMSEFDIFINYIEAYLYKTITPEFANMLRDLRDAFSRVKTFFQMKDQLDNLLLKESLLEDFKGYLGCQALSEMIQFYLEEVMPQAENQDPDIKAHVNSLGENLKTLRLRLRRCHRFLPCENKSKAVEQVKNAFNKLQEKGIYKAMSEFDIFINYIEAYMTM | – | 2.3e-10 | –
IL10-HiBit (ligand) SPGQGTQSENSCTHFPGNLPNMLRDLRDAFSRVKTFFQMKDQLDNLLLKESLLEDFKGYLGCQALSEMIQFYLEEVMPQAENQDPDIKAHVNSLGENLKTLRLRLRRCHRFLPCENKSKAVEQVKNAFNKLQEKGIYKAMSEFDIFINYIEAYMTMKIRNGGVSGWRLFKKIS | – | – | IL-10 EC-50, HEK-Blue IL-10 reporter cells [4]: 8e-10
CSF1-35AA-IL10-HiBit (ligand) EEVSEYCSHMIGSGHLQSLQRLIDSQMETSCQITFEFVDQEQLKDPVCYLKKAFLLVQDIMEDTMRFRDNTPNAIAIVQLQELSLRLKSCFTKDYEEHDKACVRTFYETPLQLLEKVKNVFNETKNLLDKDWNIFSKNCNNSFAECSSQDGGGGGSGGGGSGGSGGSGGSGGSGGSGGSGGSGGGRASPGQGTQSENSCTHFPGNLPNMLRDLRDAFSRVKTFFQMKDQLDNLLLKESLLEDFKGYLGCQALSEMIQFYLEEVMPQAENQDPDIKAHVNSLGENLKTLRLRLRRCHRFLPCENKSKAVEQVKNAFNKLQEKGIYKAMSEFDIFINYIEAYMTMKIRNGGVSGWRLFKKIS | 1.9e-10 | – | EC-50 for CSF1 activity, HEK293 CSF1R/SRE reporter [1]: 6.5e-10
ORK10-003-HiBit Q38A (ligand) MTQSENSCTHFPGNLPNMLRDLRDAFSRVKTFFQMKDQLDNLLLKESLLEDFKGYLGCQALSEMIQFYLEEVMPQAENQDPDIKAHVNSLGENLKTLRLRLRRCHRFLPCENKSKAVEQVKNAFNKLQEKGIYKAMSEFDIFINYIEAYLYKTITPEFANMLRDLRDAFSRVKTFFAMKDQLDNLLLKESLLEDFKGYLGCQALSEMIQFYLEEVMPQAENQDPDIKAHVNSLGENLKTLRLRLRRCHRFLPCENKSKAVEQVKNAFNKLQEKGIYKAMSEFDIFINYIEAYMTMGGVSGWRLFKKIS | – | – | EC-50, HEK-Blue IL-10 reporter cells [5]: 2.07e-10
ORK10-002 (ligand) MTQSENSCTHFPGNLPNMLRDLRDAFSRVKTFFQMKDQLDNLLLKESLLEDFKGYLGCQALSEMIQFYLEEVMPQAENQDPDIKAHVNSLGENLKTLRLRLRRCHRFLPCENKSKAVEQVKNAFNKLQEKGIYKAMSEFDIFINYIEAYMTMNFGGLDYLPNMLRDLRDAFSRVKTFFQMKDQLDNLLLKESLLEDFKGYLGCQALSEMIQFYLEEVMPQAENQDPDIKAHVNSLGENLKTLRLRLRRCHRFLPCENKSKAVEQVKNAFNKLQEKGIYKAMSEFDIFINYIEAYMTM | – | 3.87e-10 | –
CSF1-30AA-IL10-HiBit (ligand) EEVSEYCSHMIGSGHLQSLQRLIDSQMETSCQITFEFVDQEQLKDPVCYLKKAFLLVQDIMEDTMRFRDNTPNAIAIVQLQELSLRLKSCFTKDYEEHDKACVRTFYETPLQLLEKVKNVFNETKNLLDKDWNIFSKNCNNSFAECSSQDGGGGGSGGSGGSGGSGGSGGSGGSGGSGGGRASPGQGTQSENSCTHFPGNLPNMLRDLRDAFSRVKTFFQMKDQLDNLLLKESLLEDFKGYLGCQALSEMIQFYLEEVMPQAENQDPDIKAHVNSLGENLKTLRLRLRRCHRFLPCENKSKAVEQVKNAFNKLQEKGIYKAMSEFDIFINYIEAYMTMKIRNGGVSGWRLFKKIS | 2.35e-10 | – | EC-50 for CSF1 activity, HEK293 CSF1R/SRE reporter [1]: 5.5e-10
Foldikine10 (ligand) MTQSENSCTHFPGNLPNMLRDLRDAFSRVKTFFQMKDQLDNLLLKESLLEDFKGYLGCQALSEMIQFYLEEVMPQAENQEPDIKAHVNSLGENLKTLRLRLRRCHRFLPCENKSKAVEQVKNAFNKLQEKGIYKAMSEFDIFINYIEAYMTMNNGGLDYLPNMLRDLRDAFSRVKTFFQMKDQLDNLLLKESLLEDFKGYLGCQALSEMIQFYLEEVMPQAENQDPDIKAHVNSLGENLKTLRLRLRRNHRFLPCENKSKAVEQVKNAFNKLQEKGIYKAMSEFDIFINYIEAYMTMKIRN | – | 6.01e-10 | –
IL-10WT (wild-type human IL-10) (ligand) SPGQGTQSENSCTHFPGNLPNMLRDLRDAFSRVKTFFQMKDQLDNLLLKESLLEDFKGYLGCQALSEMIQFYLEEVMPQAENQDPDIKAHVNSLGENLKTLRLRLRRCHRFLPCENKSKAVEQVKNAFNKLQEKGIYKAMSEFDIFINYIEAYMTMKIRN | – | 8.91e-10 | –
foldikine10-HiBit (ligand) MTQSENSCTHFPGNLPNMLRDLRDAFSRVKTFFQMKDQLDNLLLKESLLEDFKGYLGCQALSEMIQFYLEEVMPQAENQEPDIKAHVNSLGENLKTLRLRLRRCHRFLPCENKSKAVEQVKNAFNKLQEKGIYKAMSEFDIFINYIEAYMTMNNGGLDYLPNMLRDLRDAFSRVKTFFQMKDQLDNLLLKESLLEDFKGYLGCQALSEMIQFYLEEVMPQAENQDPDIKAHVNSLGENLKTLRLRLRRNHRFLPCENKSKAVEQVKNAFNKLQEKGIYKAMSEFDIFINYIEAYMTMKIRNGGVSGWRLFKKIS | – | – | IL-10 EC-50, HEK-Blue IL-10 reporter cells [4]: 2.14e-10
